We go through 3 molecules from patent US20140199706A1.

Series [1] concerns yeast proteasome (26S).
Series [2] concerns the target yeast proteasome (26S) (S. cerevisiae (yeast)). In words: cell-based or functional assay.
Series [3] deals with proteasome regulatory particle (RP) purified from a ubp6Δ strain.
The target of series [4] is yeast proteasome (26S). This is another data set of the same source.

Where a chain is given by its changes, count along the chain named. Names may count otherwise. Read-outs that look alike come from different tables or passages of the source.

In the case of Ubp6-ublΔ, the “cyclin B degradation assay” value in series [1] is listed as “Deletion of the Ubl domain rendered Ubp6 non-inhibitory in the cyclin B degradation assay (FIG. 4B)”.

B1: Ubp6 (protein)
chain: MSGETFEFNIRHSGKVYPITLSTDATSADLKSKAEELTQVPSARQKYMVKGGLSGEESIKIYPLIKPGSTVMLLGTPDANLISKPAKKNNFIEDLAPEQQVQQFAQLPVGFKNMGNTCYLNATLQALYRVNDLRDMILNYNPSQGVSNSGAQDEEIHKQIVIEMKRCFENLQNKSFKSVLPIVLLNTLRKCYPQFAERDSQGGFYKQQDAEELFTQLFHSMSIVFGDKFSEDFRIQFKTTIKDTANDNDITVKENESDSKLQCHISGTTNFMRNGLLEGLNEKIEKRSDLTGANSIYSVEKKISRLPKFLTVQYVRFFWKRSTNKKSKILRKVVFPFQLDVADMLTPEYAAEKVKVRDELRKVEKEKNEKEREIKRRKFDPSSSENVMTPREQYETQVALNESEKDQWLEEYKKHFPPNLEKGENPSCVYNLIGVITHQGANSESGHYQAFIRDELDENKWYKFNDDKVSVVEKEKIESLAGGGESDSALILMYKGFGL
Molecule B1 gave an inhibition of degradation of ub-cyclin B (quantitative mass spectrometry, 20-minute incubation) in series [2] of 70%. Further, the “ubiquitin chain shortening of ub-cyclin B conjugates” value in series [3] is reported as “addition of purified Ubp6 to RP resulted in chain shortening, although to a lesser extent than with 26S proteasomes (FIG. 6A)”. In addition, in series [4], the “cyclin B degradation by ubp6Δ proteasomes after add-back of recombinant Ubp6” value was “a marked inhibition of cyclin B degradation (FIG. 1F) was observed” and the “deubiquitination of cyclin B” value is “when Ubp6 is incubated in the presence of cyclin B, but without proteasomes, no deubiquitination of cyclin B is observed (FIG. 4D)”.

B2: Ubp6-C118A (protein)
chain: B1 chain with C118A
B2: the inhibition of degradation of ub-cyclin B (quantitative mass spectrometry, 20-minute incubation) in series [2] came out at 70%. In series [4], the “cyclin B degradation assay” value is “a catalytically inactive point mutant of Ubp6 (Ubp6-C118A) proved competent for inhibition (FIG. 4B)”.
